In patent US20250188151A1, “C-JUN ANTAGONIST PEPTIDES” (The University of Bath, priority 2022, published 2025):
“Also recorded” adds a separate entry of the source. Numbered stars: 1 amine (or outer) side, 2 acyl side, 3 side chain; on linkers, the order of the positions; unused ones are H or OH. Bridge positions count the residues as written; N and C are the ends. Ends that are not written are not given here. mXylylene = c1cc(C[*:1])cc(C[*:2])c1

Assays:
[1] = target: c-Jun bZIP (expressed in E. coli) (Homo sapiens) (UniProt P05412); test: cell_activity; details: TBS assay
cJun bZIP [2] = target: cJun bZIP (Homo sapiens, UniProt P05412, S292Y); test: CD spectra and thermal denaturation of peptide/cJun heterodimers; details: heterodimer with cJun bZIP, Example 1
[3] = target: T1, cJun bZIP/TRE DNA interaction (transcriptional block of TRE-mDHFR) (Homo sapiens, UniProt P05412, S292Y); test: Transcription Block Survival (TBS) assay: colony counting and growth competition in E. coli; assay type: cell-based; details: vs transcriptionally blocked cells (TRE-mDHFR + cJun bZIP)
T1 construct: expressed in transfected cells; host or cells: E. coli BL21 Gold carrying pES300d-TRE-mDHFR and pES230d-cJun bZIP
Source text: Library Construction and TBS Assay: Library inserts were produced using PCR fill-in reactions from synthesised primers (Sigma) with degenerate codons at the desired positions to produce the correct residue options. The library was subcloned using SacI and AscI sites into the pET24a plasmid containing A-FosW. The primers used were cJun-Hinge-Lib-F: 5′-[…] TATGCC-3′ (SEQ ID NO: 49) and cJun-Hinge-Lib_R: 5′-[…] GTTC-3′ (SEQ ID NO: 50). The library DNA was transformed into NEB 10-beta electrocompetent E. coli cells. The following equation was utilised to determine library coverage by the number of single colonies: E=100×(1−1/n)^m where E is the percentage of the library missing, m is the number of colonies collected and n is the library size. […] Library DNA quality was assessed by sequencing both the DNA pool and a number of single colonies to show degenerate codons in the correct positions in the pool and to show a diversity of library members from single colonies. The pool of library DNA was transformed into BL21 Gold cells already containing pES300d-TRE-mDHFR and pES230d-cJun bZIP.
Selective pressure is applied by growing the bacteria in M9 minimal media with TMP (2-4 μM) alongside ampicillin, kanamycin and chloramphenicol to maintain the required plasmids, and IPTG (1 mM) to induce protein expression. The library transformants were first plated out onto selective agar plates (2 μM TMP) and grown at 37° C. for 72-96 h. Optimisation experiments (FIG. 5) indicate that 4 μM TMP is optimum for selection however a lower stringency is used initially before selection is increased in later steps. Colonies from this first round of selection were pooled and serially grown in liquid culture at starting OD600 of 0.05 and grown at 37° C. with shaking at 200 rpm until the OD600 reached 0.6. TMP concentration was 2 μM in the first liquid culture passage before it was increased to the optimum 4 μM in subsequent passages. […] At each passage step, a sample of the culture was plated on LB agar (supplemented with antibiotics to maintain plasmids) to select and sequence individual colonies, and a DNA pool was also sequenced. This allows the occurrence of library members to be monitored as winner sequences are selected for. Assay Validation experiments utilised a modified assay methodology whereby overnight cultures from glycerol stocks of the Control Strains (Table 2) were diluted to OD600=0.5 and 50 μL was plated on a selective M9 minimal medium agar plate.
Transcription block survival (TBS) is an intracellular assay that utilises cell survival as a readout. […] This enzyme is absolutely essential for survival since it is required for the production of purines needed for DNA and amino acid synthesis. […]. We produced a mDHFR gene (FIGS. 2 and 3) by rational design to introduce 15 TRE sites into the coding DNA sequence to allow a robust cJun transcriptional block whilst minimising alteration to the expressed protein (TRE-mDHFR). In particular, the resulting TRE-mDHFR construct was produced via two silent and thirteen conservative mutations. […] The accessible surface areas of all other amino acid residues were calculated using the ‘Accessible Surface Area and Accessibility Calculation for Protein’ tool (http://cib.cf.ocha.ac.jp/bitool/ASA/). […]

HingeW = target: T2, HingeW (synthetic construct); test: CD, DNA spectrum unchanged; details: tags: C-terminal 6xHis
T2 chain: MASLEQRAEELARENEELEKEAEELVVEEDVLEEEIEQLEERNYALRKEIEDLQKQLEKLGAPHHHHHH

A-FosW = target: T3, A-FosW (synthetic construct); test: CD, DNA spectrum unchanged; details: tags: C-terminal 6xHis
T3 chain: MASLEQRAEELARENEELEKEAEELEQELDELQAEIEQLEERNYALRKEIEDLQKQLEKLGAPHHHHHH

cJun bZIP [4] = target: T4, cJun bZIP (human, UniProt P05412 252-308, limits assumed); test: cell-based or functional assay
T4 chain: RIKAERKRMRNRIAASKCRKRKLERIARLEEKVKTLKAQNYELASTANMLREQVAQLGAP

cJun bZIP [5] = target: T4, cJun bZIP; test: CD thermal denaturation, peptide 5 µM and c-Jun 5 µM
cJun bZIP [6] = target: T4, cJun bZIP; test: cell-based or functional assay
cJun bZIP [7] = target: T4, cJun bZIP; test: CD thermal denaturation
cJun bZIP [8] = target: T4, cJun bZIP; test: cell-based or functional assay
cJun bZIP [9] = target: T4, cJun bZIP; test: ITC (PEAQ-ITC), peptide injected into cJun, one site model
cJun bZIP [10] = target: T4, cJun bZIP

Question: For TRE-mDHFR gene (15 TRE sites), which activity (fold reduction in colony count) ([1]; 4 uM TMP, 1 mM IPTG) is on record?
Answer: 21

Question: With “MASLDELQAEIEQLEERNYALRKEIEDLQKQLEKLGAPHHHHHH [FosW]” as the molecule, how does the “Tm (° C.) (CD)” value (cJun bZIP [2]) read?
Answer: 54 °C

Question: And the “effect on TRE-mDHFR transcriptional block / colony numbers” value [3]?
Answer: no significant increase in colony numbers; also recorded: unable to effectively dissociate the cJun bZIP from TRE DNA

Question: For WT-mDHFR gene, which activity (fold reduction in colony count) ([1]; presumed nonspecific plasmid binding) is on record?
Answer: 1.3

Question: With “MASTDTLQAETDQLEDEKYALQTEIANLLKEKEKLGAPHHHHHH [cFos LZ, human cFos leucine zipper domain construct]” as the molecule, how does the “effect on TRE-mDHFR transcriptional block / colony numbers” value [3] read?
Answer: no significant increase in colony numbers; also recorded: unable to effectively dissociate the cJun bZIP from TRE DNA

B1: TRE duplex (dsDNA)
DNA 1: GTCAGTCAGTGACTCAATCGGTCA
DNA 2: TGACCGATTGAGTCACTGACTGAC
Question: Does B1 bind (HingeW)?
Answer: no binding

Question: Does B1 bind (A-FosW)?
Answer: no binding

B2: HingeW variant 0W, linear (peptide)
peptide: EAEELVVEEDVLEEEIEQLEERNYALRSEICSLQCQ-NH2
modifications: not fully specified; cysteine pairing not given here
Question: Which “IC50 (µM), CD” value (cJun bZIP [4]) does the source give for B2 here?
Answer: 86.7 µM

B3: HingeW peptide variant 23 (peptide)
peptide: Ac-EAEELVVEEDVLEEEIEQLEERNYALRKEIKDLQDQ-NH2
modifications: lactam 31-35
SMILES: CC[C@H](C)[C@H](NC(=O)[C@H](CCC(=O)O)NC(=O)[C@H](CCCCN)NC(=O)[C@H](CCCNC(=N)N)NC(=O)[C@H](CC(C)C)NC(=O)[C@H](C)NC(=O)[C@H](Cc1ccc(O)cc1)NC(=O)[C@H](CC(N)=O)NC(=O)[C@H](CCCNC(=N)N)NC(=O)[C@H](CCC(=O)O)NC(=O)[C@H](CCC(=O)O)NC(=O)[C@H](CC(C)C)NC(=O)[C@H](CCC(N)=O)NC(=O)[C@H](CCC(=O)O)NC(=O)[C@@H](NC(=O)[C@H](CCC(=O)O)NC(=O)[C@H](CCC(=O)O)NC(=O)[C@H](CCC(=O)O)NC(=O)[C@H](CC(C)C)NC(=O)[C@@H](NC(=O)[C@H](CC(=O)O)NC(=O)[C@H](CCC(=O)O)NC(=O)[C@H](CCC(=O)O)NC(=O)[C@@H](NC(=O)[C@@H](NC(=O)[C@H](CC(C)C)NC(=O)[C@H](CCC(=O)O)NC(=O)[C@H](CCC(=O)O)NC(=O)[C@H](C)NC(=O)[C@H](CCC(=O)O)NC(C)=O)C(C)C)C(C)C)C(C)C)[C@@H](C)CC)C(=O)N[C@H]1CCCCNC(=O)C[C@@H](C(=O)N[C@@H](CCC(N)=O)C(N)=O)NC(=O)[C@H](CCC(N)=O)NC(=O)[C@H](CC(C)C)NC(=O)[C@H](CC(=O)O)NC1=O
notes: Synthetic, NΔ20 CΔ7; Best single lactamised peptide; also called cyclised form of 22/23
Question: With B3 as the molecule, how does the “Tm (° C.) of peptide-c-Jun heterodimer” value (cJun bZIP [5]) read?
Answer: 65 ° C.

Question: What about the “fold lower IC50 than 11” value (cJun bZIP [6]) of the same molecule?
Answer: 1.6 fold

Question: And the “heterodimer ΔTm against parent sequence 11” value (cJun bZIP [7])?
Answer: ~8 ° C.

Question: And the “heterodimer ΔTm from lactamisation (23 against linear 22)” value (cJun bZIP [7])?
Answer: ~9 ° C.

Question: And the “IC50 CD” value (cJun bZIP [8])?
Answer: 52.7 µM

Question: And the “-TΔS” value (cJun bZIP [9])?
Answer: 58.4 kJ/mol

Question: And the Kd (cJun bZIP [9])?
Answer: 86.5 nM

Question: What about the “Stoichiometry, n” value (cJun bZIP [9]) of the same molecule?
Answer: 0.97

Question: What about the ΔG (cJun bZIP [9]) of the same molecule?
Answer: -40.4 kJ/mol

Question: What about the ΔH (cJun bZIP [9]) of the same molecule?
Answer: -98.7 kJ/mol

B4: HingeW variant peptide 17 (peptide)
peptide: Ac-EAEELVVEEKVLEDEIEQLEERNYALRKEIEDLQKQ-NH2
modifications: lactam 10-14
SMILES: CC[C@H](C)[C@H](NC(=O)[C@H](CCC(=O)O)NC(=O)[C@H](CCCCN)NC(=O)[C@H](CCCNC(=N)N)NC(=O)[C@H](CC(C)C)NC(=O)[C@H](C)NC(=O)[C@H](Cc1ccc(O)cc1)NC(=O)[C@H](CC(N)=O)NC(=O)[C@H](CCCNC(=N)N)NC(=O)[C@H](CCC(=O)O)NC(=O)[C@H](CCC(=O)O)NC(=O)[C@H](CC(C)C)NC(=O)[C@H](CCC(N)=O)NC(=O)[C@H](CCC(=O)O)NC(=O)[C@@H](NC(=O)[C@H](CCC(=O)O)NC(=O)[C@@H]1CC(=O)NCCCC[C@H](NC(=O)[C@H](CCC(=O)O)NC(=O)[C@H](CCC(=O)O)NC(=O)[C@@H](NC(=O)[C@@H](NC(=O)[C@H](CC(C)C)NC(=O)[C@H](CCC(=O)O)NC(=O)[C@H](CCC(=O)O)NC(=O)[C@H](C)NC(=O)[C@H](CCC(=O)O)NC(C)=O)C(C)C)C(C)C)C(=O)N[C@@H](C(C)C)C(=O)N[C@@H](CC(C)C)C(=O)N[C@@H](CCC(=O)O)C(=O)N1)[C@@H](C)CC)C(=O)N[C@@H](CCC(=O)O)C(=O)N[C@@H](CC(=O)O)C(=O)N[C@@H](CC(C)C)C(=O)N[C@@H](CCC(N)=O)C(=O)N[C@@H](CCCCN)C(=O)N[C@@H](CCC(N)=O)C(N)=O
notes: Synthetic, NΔ20 CΔ7; also called cyclised form of 16/17
Question: Which “Tm (° C.) of peptide-c-Jun heterodimer” value (cJun bZIP [5]) does the source give for B4 here?
Answer: 64 ° C.

Question: And the “increase in cJun heterodimer Tm from its linear form 16” value (cJun bZIP [7])?
Answer: ~9 ° C.

Question: What about the “IC50 CD” value (cJun bZIP [8]) of the same molecule?
Answer: 74.9 µM

Question: And the “-TΔS” value (cJun bZIP [9])?
Answer: 18.1 kJ/mol

Question: And the Kd (cJun bZIP [9])?
Answer: 69.5 nM

Question: And the “Stoichiometry, n” value (cJun bZIP [9])?
Answer: 1.2

Question: What about the ΔG (cJun bZIP [9]) of the same molecule?
Answer: -40.9 kJ/mol

Question: What about the ΔH (cJun bZIP [9]) of the same molecule?
Answer: -59 kJ/mol

B5: FosW (peptide)
peptide: MASLDELQAEIEQLEERNYALRKEIEDLQKQLEKLGAPHHHHHH
modifications: not fully specified
notes: Recombinant, capped and C-terminally 6xHis-tagged; Lacks the acidic extension
Question: For B5, which “IC50, CD antagonism of cJun/TRE DNA (peak at ~281 nM)” value (cJun bZIP [6]) is on record?
Answer: 120 µM

Question: And the “heterodimer Tm” value (cJun bZIP [10])?
Answer: 54 ° C.

B6: cJun bZIP (protein)
chain: RIKAERKRMRNRIAASKCRKRKLERIARLEEKVKTLKAQNYELASTANMLREQVAQLGAP
Question: For B6, which Tm (° C.) (CD) is on record?
Answer: 39.8 ° C.

B7: HingeW variant meta DBMBW, linear (peptide)
peptide: EAEELVVEEDVLEEEIEQLEERNYALRAEICNLSCQ-NH2
modifications: not fully specified; cysteine pairing not given here
Question: For B7, which “IC50 (µM), CD” value (cJun bZIP [4]) is on record?
Answer: 91.1 µM

B8: HingeW variant meta DBMBW, cyclised (peptide)
peptide: EAEELVVEEDVLEEEIEQLEERNYALRAEICNLSCQ-NH2
modifications: linker 31-35 via mXylylene; not fully specified
Question: With B8 as the molecule, how does the “IC50 (µM), CD” value (cJun bZIP [4]) read?
Answer: 61.5 µM

B9: HingeW variant 0W, cyclised (peptide)
peptide: EAEELVVEEDVLEEEIEQLEERNYALRSEICSLQCQ-NH2
modifications: linker 31-35 via mXylylene; not fully specified
Question: Which “IC50 (µM), CD” value (cJun bZIP [4]) does the source give for B9 here?
Answer: 77.6 µM
